According to US20220010021A1 (Sanofi, published 2022):
Positions count from the first letter of the chain named. Names and notes keep the numbering of the source. One block for each binder: values may come before it.

Key:
[1] = target: human FGFR1c/KLB cell surface receptor complex on iLite FGF21 reporter cells (human, UniProt P11362 22-822; Q86Z14 1-1044); test: cell-based or functional assay
[2] = target: cell surface receptor composed of FGFR1c and co-receptor beta-Klotho (KLB) (human, UniProt P11362 22-822; Q86Z14 1-1044); test: cell-based or functional assay
Wherever Mean E max (%) is given: reference of the scale not given here.
Wherever Mean E max, Luciferase reporter gene assay is given: reference of the scale not given here.

Sequence of human FGFR1c/KLB cell surface receptor complex on iLite FGF21 reporter cells (P11362 22-822, chain 1 of 2): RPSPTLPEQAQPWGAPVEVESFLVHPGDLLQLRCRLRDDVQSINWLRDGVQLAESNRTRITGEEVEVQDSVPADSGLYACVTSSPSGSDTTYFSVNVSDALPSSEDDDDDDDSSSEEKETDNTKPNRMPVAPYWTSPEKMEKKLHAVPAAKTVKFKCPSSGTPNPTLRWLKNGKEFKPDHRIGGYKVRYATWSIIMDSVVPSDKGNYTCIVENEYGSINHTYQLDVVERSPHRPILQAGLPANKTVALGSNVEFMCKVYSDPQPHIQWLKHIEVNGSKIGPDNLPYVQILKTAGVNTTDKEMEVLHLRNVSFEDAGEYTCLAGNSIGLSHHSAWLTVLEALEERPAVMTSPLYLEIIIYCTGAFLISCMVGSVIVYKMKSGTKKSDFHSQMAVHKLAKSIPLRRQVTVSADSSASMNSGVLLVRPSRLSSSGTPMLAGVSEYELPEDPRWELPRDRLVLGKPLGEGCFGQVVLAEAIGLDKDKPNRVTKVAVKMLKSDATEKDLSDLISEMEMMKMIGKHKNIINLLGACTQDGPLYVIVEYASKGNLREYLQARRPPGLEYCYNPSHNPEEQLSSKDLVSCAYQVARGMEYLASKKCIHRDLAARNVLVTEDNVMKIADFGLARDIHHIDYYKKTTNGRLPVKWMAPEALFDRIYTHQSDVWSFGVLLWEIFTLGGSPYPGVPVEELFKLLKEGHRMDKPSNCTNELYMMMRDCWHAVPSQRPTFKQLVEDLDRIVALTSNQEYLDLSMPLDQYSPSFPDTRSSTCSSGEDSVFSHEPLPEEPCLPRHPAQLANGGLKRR
Sequence of human FGFR1c/KLB cell surface receptor complex on iLite FGF21 reporter cells (Q86Z14 whole entry, chain 2 of 2): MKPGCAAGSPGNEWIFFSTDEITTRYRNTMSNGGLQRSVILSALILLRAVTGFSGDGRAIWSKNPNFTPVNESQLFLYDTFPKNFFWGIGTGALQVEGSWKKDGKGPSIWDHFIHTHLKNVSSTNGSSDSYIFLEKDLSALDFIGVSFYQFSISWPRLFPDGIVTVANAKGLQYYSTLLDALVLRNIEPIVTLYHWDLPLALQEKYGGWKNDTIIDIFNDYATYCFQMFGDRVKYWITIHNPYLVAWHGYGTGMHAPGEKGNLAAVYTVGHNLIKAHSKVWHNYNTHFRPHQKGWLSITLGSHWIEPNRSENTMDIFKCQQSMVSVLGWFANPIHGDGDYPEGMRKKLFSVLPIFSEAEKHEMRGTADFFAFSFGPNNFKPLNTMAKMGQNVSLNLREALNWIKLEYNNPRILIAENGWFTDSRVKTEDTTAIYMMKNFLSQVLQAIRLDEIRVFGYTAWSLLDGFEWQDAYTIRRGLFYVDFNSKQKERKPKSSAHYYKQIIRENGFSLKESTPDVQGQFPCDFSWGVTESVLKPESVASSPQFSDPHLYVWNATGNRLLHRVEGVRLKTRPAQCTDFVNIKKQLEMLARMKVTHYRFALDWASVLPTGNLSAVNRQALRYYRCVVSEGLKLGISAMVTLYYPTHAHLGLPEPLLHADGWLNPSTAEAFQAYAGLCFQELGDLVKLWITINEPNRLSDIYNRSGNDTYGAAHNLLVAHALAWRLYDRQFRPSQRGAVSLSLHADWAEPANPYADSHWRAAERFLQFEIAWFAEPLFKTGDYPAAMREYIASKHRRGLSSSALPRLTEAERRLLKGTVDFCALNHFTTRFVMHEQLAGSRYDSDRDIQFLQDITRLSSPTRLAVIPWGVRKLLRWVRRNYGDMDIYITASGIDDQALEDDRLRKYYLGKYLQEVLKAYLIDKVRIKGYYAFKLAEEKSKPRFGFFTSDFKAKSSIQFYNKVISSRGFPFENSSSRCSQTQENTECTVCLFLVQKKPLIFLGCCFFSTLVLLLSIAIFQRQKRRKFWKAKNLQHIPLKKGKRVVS
Sequence of cell surface receptor composed of FGFR1c and co-receptor beta-Klotho (KLB) (P11362 22-822, chain 1 of 2): as the sequence (P11362 22-822, chain 1 of 2) above
Sequence of cell surface receptor composed of FGFR1c and co-receptor beta-Klotho (KLB) (Q86Z14 whole entry, chain 2 of 2): as the sequence (Q86Z14 whole entry, chain 2 of 2) above

Mean E max (%) [1]: 110%
B1: 16H7 variant, light chain G24P (antibody, human IgG4 S228P, lambda, V domains shown)
VH: not shown
VL: SYVLTQPPSVSVAPGQTARITCGPNNIGSESVHWYQQKPGQAPVLVVYDDSDRPSGIPERFSGSNSGNTATLTISRVEAGDEADYYCQVWDGNSDHVVFGGGTKLTVLG

Mean E max, Luciferase reporter gene assay [2]: -1%
B8: 16H7 light chain variant V97R (antibody, IgG4, V domains shown)
VH: not shown
VL: B1 VL with P24G, V97R

Mean E max, Luciferase reporter gene assay [2]: 90%
Mean EC50, Luciferase reporter gene assay [2]: 0.253 nM
B12: 16H7 light chain variant H33P (antibody, IgG4, V domains shown)
VH: not shown
VL: B1 VL with P24G, H33P

Mean E max, Luciferase reporter gene assay [2]: 75%
Mean EC50, Luciferase reporter gene assay [2]: 0.51 nM
B13: 16H7 light chain variant V97G (antibody, IgG4, V domains shown)
VH: not shown
VL: B1 VL with P24G, V97G

Mean E max, Luciferase reporter gene assay [2]: 80%
Mean EC50, Luciferase reporter gene assay [2]: 0.666 nM
B17: 16H7 light chain variant H33W (antibody, IgG4, V domains shown)
VH: not shown
VL: B1 VL with P24G, H33W

Mean E max, Luciferase reporter gene assay [2]: 67%
Mean EC50, Luciferase reporter gene assay [2]: 0.375 nM
B19: 16H7 light chain variant V97D (antibody, IgG4, V domains shown)
VH: not shown
VL: B1 VL with P24G, V97D

Mean E max, Luciferase reporter gene assay [2]: 84%
Mean EC50, Luciferase reporter gene assay [2]: 0.308 nM
B22: 16H7 light chain variant V97S (antibody, IgG4, V domains shown)
VH: not shown
VL: B1 VL with P24G, V97S

Mean E max, Luciferase reporter gene assay [2]: 65%
Mean EC50, Luciferase reporter gene assay [2]: 2.55 nM
B23: 16H7 light chain variant V97P (antibody, IgG4, V domains shown)
VH: not shown
VL: B1 VL with P24G, V97P

Mean E max, Luciferase reporter gene assay [2]: 92%
Mean EC50, Luciferase reporter gene assay [2]: 0.15 nM
B29: 16H7 light chain variant V97E (antibody, IgG4, V domains shown)
VH: not shown
VL: B1 VL with P24G, V97E

Mean E max, Luciferase reporter gene assay [2]: 85%
Mean EC50, Luciferase reporter gene assay [2]: 0.164 nM
B30: 16H7 light chain variant V32P (antibody, IgG4, V domains shown)
VH: not shown
VL: B1 VL with P24G, V32P

Mean E max, Luciferase reporter gene assay [2]: 68%
Mean EC50, Luciferase reporter gene assay [2]: 2.19 nM
B31: 16H7 light chain variant H33R (antibody, IgG4, V domains shown)
VH: not shown
VL: B1 VL with P24G, H33R

Mean E max, Luciferase reporter gene assay [2]: 96%
Mean EC50, Luciferase reporter gene assay [2]: 0.444 nM
B32: 16H7 light chain variant V97K (antibody, IgG4, V domains shown)
VH: not shown
VL: B1 VL with P24G, V97K

Mean E max, Luciferase reporter gene assay [2]: 68%
Mean EC50, Luciferase reporter gene assay [2]: 2.09 nM
B35: 16H7 light chain variant V97A (antibody, IgG4, V domains shown)
VH: not shown
VL: B1 VL with P24G, V97A

Mean E max, Luciferase reporter gene assay [2]: 50%
B36: 16H7 light chain variant H96P (antibody, IgG4, V domains shown)
VH: not shown
VL: B1 VL with P24G, H96P

Mean E max, Luciferase reporter gene assay [2]: 96%
Mean EC50, Luciferase reporter gene assay [2]: 0.174 nM
B37: 16H7 light chain variant H33K (antibody, IgG4, V domains shown)
VH: not shown
VL: B1 VL with P24G, H33K

Mean E max, Luciferase reporter gene assay [2]: 71%
Mean EC50, Luciferase reporter gene assay [2]: 1.47 nM
B39: 16H7 light chain variant V97H (antibody, IgG4, V domains shown)
VH: not shown
VL: B1 VL with P24G, V97H

Mean E max, Luciferase reporter gene assay [2]: 104%
Mean EC50, Luciferase reporter gene assay [2]: 0.185 nM
B42: 16H7 light chain variant S94K (antibody, IgG4, V domains shown)
VH: not shown
VL: B1 VL with P24G, S94K

Mean E max (%) [1]: 104%
B44: 16H7 variant, light chain N25F (antibody, human IgG4 S228P, lambda, V domains shown)
VH: not shown
VL: B1 VL with P24G, N25F

Mean E max (%) [1]: 105%
B45: 16H7 variant, light chain P54A (antibody, human IgG4 S228P, lambda, V domains shown)
VH: not shown
VL: B1 VL with P24G, P54A

Mean E max (%) [1]: 104%
B46: 16H7 variant, light chain Q88S (antibody, human IgG4 S228P, lambda, V domains shown)
VH: not shown
VL: B1 VL with P24G, Q88S

Mean E max (%) [1]: 100%
B47: 16H7 variant, light chain R53N (antibody, human IgG4 S228P, lambda, V domains shown)
VH: not shown
VL: B1 VL with P24G, R53N

Mean E max (%) [1]: 101%
B49: 16H7 variant, light chain R53V (antibody, human IgG4 S228P, lambda, V domains shown)
VH: not shown
VL: B1 VL with P24G, R53V

Continued, binder first:

B2: 16H7 light chain variant D95C (antibody, IgG4, V domains shown)
VH: not shown
VL: B1 VL with P24G, D95C
Mean E max, Luciferase reporter gene assay [2]: 4%

B3: 16H7 light chain variant D95F (antibody, IgG4, V domains shown)
VH: not shown
VL: B1 VL with P24G, D95F
Mean E max, Luciferase reporter gene assay [2]: -1%

B4: 16H7 light chain variant D49C (antibody, IgG4, V domains shown)
VH: not shown
VL: B1 VL with P24G, D49C
Mean E max, Luciferase reporter gene assay [2]: 85%
Mean EC50, Luciferase reporter gene assay [2]: 0.789 nM

B5: 16H7 light chain variant D95V (antibody, IgG4, V domains shown)
VH: not shown
VL: B1 VL with P24G, D95V
Mean E max, Luciferase reporter gene assay [2]: 3%

B6: 16H7 light chain variant D49M (antibody, IgG4, V domains shown)
VH: not shown
VL: B1 VL with P24G, D49M
Mean E max, Luciferase reporter gene assay [2]: 85%
Mean EC50, Luciferase reporter gene assay [2]: 0.224 nM

B7: 16H7 light chain variant D49V (antibody, IgG4, V domains shown)
VH: not shown
VL: B1 VL with P24G, D49V
Mean E max, Luciferase reporter gene assay [2]: 97%
Mean EC50, Luciferase reporter gene assay [2]: 0.206 nM

B9: 16H7 light chain variant D49R (antibody, IgG4, V domains shown)
VH: not shown
VL: B1 VL with P24G, D49R
Mean E max, Luciferase reporter gene assay [2]: 72%
Mean EC50, Luciferase reporter gene assay [2]: 1.86 nM

B10: 16H7 light chain variant D95E (antibody, IgG4, V domains shown)
VH: not shown
VL: B1 VL with P24G, D95E
Mean E max, Luciferase reporter gene assay [2]: 44%
Mean EC50, Luciferase reporter gene assay [2]: 8.04 nM

B11: 16H7 light chain variant D49Y (antibody, IgG4, V domains shown)
VH: not shown
VL: B1 VL with P24G, D49Y
Mean E max, Luciferase reporter gene assay [2]: 99%
Mean EC50, Luciferase reporter gene assay [2]: 0.151 nM

B14: 16H7 light chain variant D95P (antibody, IgG4, V domains shown)
VH: not shown
VL: B1 VL with P24G, D95P
Mean E max, Luciferase reporter gene assay [2]: 4%

B15: 16H7 light chain variant D49T (antibody, IgG4, V domains shown)
VH: not shown
VL: B1 VL with P24G, D49T
Mean E max, Luciferase reporter gene assay [2]: 89%
Mean EC50, Luciferase reporter gene assay [2]: 0.107 nM

B16: 16H7 light chain variant D95N (antibody, IgG4, V domains shown)
VH: not shown
VL: B1 VL with P24G, D95N
Mean E max, Luciferase reporter gene assay [2]: 78%
Mean EC50, Luciferase reporter gene assay [2]: 1.03 nM

B18: 16H7 light chain variant D95W (antibody, IgG4, V domains shown)
VH: not shown
VL: B1 VL with P24G, D95W
Mean E max, Luciferase reporter gene assay [2]: 5%

B20: 16H7 light chain variant D49I (antibody, IgG4, V domains shown)
VH: not shown
VL: B1 VL with P24G, D49I
Mean E max, Luciferase reporter gene assay [2]: 83%
Mean EC50, Luciferase reporter gene assay [2]: 0.149 nM

B21: 16H7 light chain variant D95G (antibody, IgG4, V domains shown)
VH: not shown
VL: B1 VL with P24G, D95G
Mean E max, Luciferase reporter gene assay [2]: 47%
Mean EC50, Luciferase reporter gene assay [2]: 6.56 nM

B24: 16H7 light chain variant D49F (antibody, IgG4, V domains shown)
VH: not shown
VL: B1 VL with P24G, D49F
Mean E max, Luciferase reporter gene assay [2]: 94%
Mean EC50, Luciferase reporter gene assay [2]: 0.256 nM

B25: 16H7 light chain variant D49H (antibody, IgG4, V domains shown)
VH: not shown
VL: B1 VL with P24G, D49H
Mean E max, Luciferase reporter gene assay [2]: 90%
Mean EC50, Luciferase reporter gene assay [2]: 0.183 nM

B26: 16H7 light chain variant D49P (antibody, IgG4, V domains shown)
VH: not shown
VL: B1 VL with P24G, D49P
Mean E max, Luciferase reporter gene assay [2]: 96%
Mean EC50, Luciferase reporter gene assay [2]: 0.195 nM

B27: 16H7 light chain variant D49E (antibody, IgG4, V domains shown)
VH: not shown
VL: B1 VL with P24G, D49E
Mean E max, Luciferase reporter gene assay [2]: 87%
Mean EC50, Luciferase reporter gene assay [2]: 0.193 nM

B28: 16H7 light chain variant D50P (antibody, IgG4, V domains shown)
VH: not shown
VL: B1 VL with P24G, D50P
Mean E max, Luciferase reporter gene assay [2]: 77%
Mean EC50, Luciferase reporter gene assay [2]: 0.124 nM

B33: 16H7 light chain variant D49N (antibody, IgG4, V domains shown)
VH: not shown
VL: B1 VL with P24G, D49N
Mean E max, Luciferase reporter gene assay [2]: 108%
Mean EC50, Luciferase reporter gene assay [2]: 0.19 nM

B34: 16H7 light chain variant D49L (antibody, IgG4, V domains shown)
VH: not shown
VL: B1 VL with P24G, D49L
Mean E max, Luciferase reporter gene assay [2]: 92%
Mean EC50, Luciferase reporter gene assay [2]: 0.529 nM

B38: 16H7 light chain variant D49K (antibody, IgG4, V domains shown)
VH: not shown
VL: B1 VL with P24G, D49K
Mean E max, Luciferase reporter gene assay [2]: 83%
Mean EC50, Luciferase reporter gene assay [2]: 1.34 nM

B40: 16H7 light chain variant D95R (antibody, IgG4, V domains shown)
VH: not shown
VL: B1 VL with P24G, D95R
Mean E max, Luciferase reporter gene assay [2]: 4%

B41: 16H7 light chain variant D49A (antibody, IgG4, V domains shown)
VH: not shown
VL: B1 VL with P24G, D49A
Mean E max, Luciferase reporter gene assay [2]: 100%
Mean EC50, Luciferase reporter gene assay [2]: 0.106 nM

B43: 16H7 light chain variant D50K (antibody, IgG4, V domains shown)
VH: not shown
VL: B1 VL with P24G, D50K
Mean E max, Luciferase reporter gene assay [2]: 109%

B48: 16H7 light chain variant D95S (antibody, IgG4, V domains shown)
VH: not shown
VL: B1 VL with P24G, D95S
Mean E max, Luciferase reporter gene assay [2]: 37%
